Data: US20250352659A1, “SELF-STABILIZING LINKER CONJUGATES” (priority 2023, published 2025)

Key:
Type in all cases: physicochemical
[1] = Conjugator-antibody conjugate maleimide hydrolysis (ring opening) kinetics by reduced LCMS
Procedure: After the conjugation step, the ADC (or conjugator-antibody conjugate) was subjected to buffer exchange into ring opening buffer (pH 6.5˜9.0, PBS, borate or tris buffer) and the solution was left at 22 or 37° C. for 1˜48 h. The maleimide ring opening process was monitored via reduced LCMS. Once the conjugated maleimide hydrolysis was completed, the resulting ADCs were buffer exchanged into basic tris pH 8.0-8.5 buffer or acidic histidine-acetate pH 5.0-6.5 buffer via dialysis.
LCMS method to monitor and determine maleimide hydrolysis. LC-MS analysis was carried out under the following measurement conditions: • LC-MS system: Vanquish Flex UHPLC and Orbitrap Exploris 240 Mass Spectrometer • Column: MAbPac™ RP, 2.1*50 mm, 4 μm, 1,500 Å, Thermo Scientific™ • Column temperature: 80° C. • Mobile phase A: 0.1% formic acid (FA) aqueous solution • Mobile phase B: Acetonitrile solution containing 0.1% formic acid (FA) • Gradient program 1: 25% B-25% B (0 min-2 min), 25% B-50% B (2 min-18 min), 50% B-90% B (18 min-18.1 min), 90% B-90% B (18.1 min-20 min), 90% B-25% B (20 min-20.1 min), 25% B-25% B (20.1 min-25 min) • Gradient program 2 • Injected sample amount: 2 μg • MS parameters: Intact and denaturing MS data were acquired in HMR mode at setting of R=15k and deconvolved using the ReSpect™ algorithm and Sliding Window integration in Thermo Scientific™ BioPharma Finder™ 4.0 software.
Results for ring opening times measured by the LCMS method described above for monitoring ring hydrolysis are presented in Table 3 as RO T1/2 (h) (i.e., the time, in hours, for 50% of the maleimide rings to open).
Conjugator-antibody conjugate maleimide hydrolysis (ring opening) kinetics are presented in FIGS. 1A-1L, Table 3 (for pH 7.0 reaction conditions, hydrolysis T1/2), and Table 5. The data in Table 5 was generated by the LCMS method described above and includes the time, in hours, for the maleimide ring to open in more than 95% of the conjugators, after antibody conjugation (“RO Completed Time (>95%) (h)”). The results for conjugator-antibody conjugate 3-1 indicate that after 24 hours, about 0% of maleimide rings were open; the results for conjugator-antibody conjugate 3-3 indicate that after 24 hours, about 28% of maleimide rings were open.

[2] = Conjugator-antibody conjugate stability in pH 7.4 and 8.0 buffer with and without GSH; settings: incubation 20 h;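 note: conjugate hydrolysis tracked by LC-MS analysis of reduced samples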
[3] = Conjugator-antibody conjugate stability in formulation buffer (pH 5.5 20 mM histidine buffer); settings: pH 5.5, 22 °C
Procedure: After the conjugation and hydrolysis steps described above (see “DAR8 antibody drug conjugate/conjugator-antibody conjugate preparation”), conjugator-antibody conjugates were incubated in formulation buffer (pH 5.5 20 mM histidine buffer) or glutathione (GSH) buffer (pH 7.4 or 8.0), […] Hydrolysis status was monitored via reduced LCMS. Results are presented in Table 6, Table 7, and FIGS. 2A-23B.

[4] = Conjugator-antibody conjugate maleimide hydrolysis (ring opening) kinetics by reduced LCMS; settings: pH 7, time point 96 h

CN(C)C(=O)CCNC(=O)OCC(CCN)N1C(=O)C=CC1=O (centres unmarked) [3-11]
half-life ([1]; buffer, pH 7.0, time for 50% of the maleimide rings to open, read-out: RO T1/2 (converted)): 14 h
MS DAR ([1]; pH 7, time point 1 h): 8
RO (%) HC ([1]; pH 7, time point 1 h): 3.41%
RO (%) LC ([1]; pH 7, time point 1 h): 1.97%
RO (%) Total ([1]; pH 7, time point 1 h): 3.05%
MS DAR ([1]; pH 7, time point 3 h): 8
RO (%) HC ([1]; pH 7, time point 3 h): 12.32%
RO (%) LC ([1]; pH 7, time point 3 h): 6.37%
RO (%) Total ([1]; pH 7, time point 3 h): 10.83%
MS DAR ([1]; pH 7, time point 5 h): 8
RO (%) HC ([1]; pH 7, time point 5 h): 31.72%
RO (%) LC ([1]; pH 7, time point 5 h): 10.15%
RO (%) Total ([1]; pH 7, time point 5 h): 26.33%
MS DAR ([1]; pH 7, time point 7 h): 8
RO (%) HC ([1]; pH 7, time point 7 h): 33.03%
RO (%) LC ([1]; pH 7, time point 7 h): 14.6%
RO (%) Total ([1]; pH 7, time point 7 h): 28.42%
MS DAR ([1]; pH 7, time point 24 h): 8
RO (%) HC ([1]; pH 7, time point 24 h): 84.46%
RO (%) LC ([1]; pH 7, time point 24 h): 68.64%
RO (%) Total ([1]; pH 7, time point 24 h): 80.51%
MS DAR ([1]; pH 7, time point 96 h): 8
RO (%) HC ([1]; pH 7, time point 96 h): 96.94%
RO (%) LC ([1]; pH 7, time point 96 h): 89.26%
RO Completed Time (>95%) ([1]; pH 7, time for the maleimide ring to open in more than 95% of the conjugators): 96 h
MS DAR ([2]; pH 7.4, 22 °C): 8.00
MS DAR ([2]; pH 7.4, 37 °C): 8.00
MS DAR ([2]; pH 8.0, 22 °C): 8.00
MS DAR-T = 168 h ([3]; incubation 168 h): 8.00
Maleimide ring opening ratio (%) at T = 168 h ([3]; incubation 168 h): 96.99%
MS DAR-T = 0 h [3]: 8.02
RO (%) Total [4]: 95.02%
